PMC1373692
Like-named read-outs stand apart in the source and are kept apart here.

Experiments:
RecJ (native wild-type) [1] = molecular target: T1, RecJ (native wild-type) (Escherichia coli, UniProt P21893 1-577); assay: EMSA
T1 sequence: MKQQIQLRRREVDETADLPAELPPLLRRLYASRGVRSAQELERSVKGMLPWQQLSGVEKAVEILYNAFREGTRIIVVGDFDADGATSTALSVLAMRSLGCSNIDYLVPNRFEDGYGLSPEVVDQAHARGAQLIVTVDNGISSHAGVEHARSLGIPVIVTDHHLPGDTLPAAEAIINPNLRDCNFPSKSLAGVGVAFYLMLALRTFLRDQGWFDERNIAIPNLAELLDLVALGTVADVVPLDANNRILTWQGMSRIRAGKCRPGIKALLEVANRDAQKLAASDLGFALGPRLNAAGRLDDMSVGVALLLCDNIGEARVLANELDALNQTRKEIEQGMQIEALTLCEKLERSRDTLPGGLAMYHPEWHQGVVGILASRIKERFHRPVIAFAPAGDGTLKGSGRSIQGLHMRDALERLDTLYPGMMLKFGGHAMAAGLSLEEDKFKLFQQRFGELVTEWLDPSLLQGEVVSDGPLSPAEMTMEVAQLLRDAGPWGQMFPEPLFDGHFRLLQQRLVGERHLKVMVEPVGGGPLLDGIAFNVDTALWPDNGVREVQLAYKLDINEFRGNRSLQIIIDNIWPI

RecJ (native wild-type) [2] = molecular target: T1, RecJ (native wild-type); assay: EMSA; remark: listed apart in the source
RecJ (native wild-type) [3] = molecular target: T1, RecJ (native wild-type); assay: EMSA; remark: listed apart in the source
[4] = molecular target: RecJ (native wild-type);SSB (Escherichia coli;Escherichia coli?, UniProt P21893;P0AGE0 1-577;2-178, |); assay: EMSA, supershift
RecJf (MBP-RecJ fusion) = molecular target: T2, RecJf (MBP-RecJ fusion) (UniProt P21893 1-577); assay: EMSA
T2 sequence: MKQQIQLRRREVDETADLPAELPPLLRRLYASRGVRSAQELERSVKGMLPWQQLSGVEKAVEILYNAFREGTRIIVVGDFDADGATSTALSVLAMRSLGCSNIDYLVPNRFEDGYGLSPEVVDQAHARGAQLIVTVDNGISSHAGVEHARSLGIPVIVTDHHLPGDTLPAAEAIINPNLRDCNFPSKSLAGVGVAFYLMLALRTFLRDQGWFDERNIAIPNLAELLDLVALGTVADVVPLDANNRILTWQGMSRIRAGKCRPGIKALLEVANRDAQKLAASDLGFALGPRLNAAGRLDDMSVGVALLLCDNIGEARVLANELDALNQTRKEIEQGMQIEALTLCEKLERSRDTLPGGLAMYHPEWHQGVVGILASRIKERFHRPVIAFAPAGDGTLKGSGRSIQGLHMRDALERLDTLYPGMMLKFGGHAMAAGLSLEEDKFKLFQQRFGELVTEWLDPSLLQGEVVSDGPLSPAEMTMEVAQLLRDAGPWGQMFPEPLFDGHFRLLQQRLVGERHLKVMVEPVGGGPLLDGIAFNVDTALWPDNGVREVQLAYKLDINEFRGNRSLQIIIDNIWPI

RecJ (native wild-type) [5] = molecular target: T1, RecJ (native wild-type); assay: EMSA; remark: listed apart in the source
SSB = SSB (UniProt P0AGE0 2-178); assay: EMSA
Sequence of SSB (P0AGE0 2-178): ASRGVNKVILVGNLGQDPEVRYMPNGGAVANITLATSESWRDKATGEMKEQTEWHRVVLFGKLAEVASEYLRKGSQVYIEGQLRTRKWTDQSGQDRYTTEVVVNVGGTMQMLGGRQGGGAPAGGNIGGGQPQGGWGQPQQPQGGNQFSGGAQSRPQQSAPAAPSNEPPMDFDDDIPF

Sequence of RecJ (native wild-type);SSB (P0AGE0 2-178, one chain of several): as the sequence (P0AGE0 2-178) above

B1: A/C 10 nt 5' tail (dsDNA)
DNA 1: GCCCAGGTGGCAGGCCCTAGGGTGGAGGGGAGGCCGCCGGCATGGGGACGCGATGGGCGGAGGCG
DNA 2: CGCCTCCGCCCATCGCGTCCCCATGCCGGCGGCCTCCCCTCCACCCTAGGGCCTG
modifications: 5' phosphate on A from labeling
Kd (RecJ (native wild-type) [1]): 9.5 nM

B2: A 8 nt 5' tail (dsDNA)
DNA 1: GCCCAGGTGGCAGGCCCTAGGGTGGAGGGGAGGCCGCCGGCATGGGGACGCGATGGGCGGAGGCG
DNA 2: CGCCTCCGCCCATCGCGTCCCCATGCCGGCGGCCTCCCCTCCACCCTAGGGCCTGCC
modifications: 5' phosphate on A from labeling
binding result (RecJ (native wild-type) [2]): binds

B3: A/D 4 nt 5' tail (dsDNA)
DNA 1: GCCCAGGTGGCAGGCCCTAGGGTGGAGGGGAGGCCGCCGGCATGGGGACGCGATGGGCGGAGGCG
DNA 2: CGCCTCCGCCCATCGCGTCCCCATGCCGGCGGCCTCCCCTCCACCCTAGGGCCTGCCACCT
modifications: 5' phosphate on A from labeling
binding result (RecJ (native wild-type) [3]): no binding

B4: oligonucleotide A (65mer) (ssDNA)
DNA: GCCCAGGTGGCAGGCCCTAGGGTGGAGGGGAGGCCGCCGGCATGGGGACGCGATGGGCGGAGGCG
modifications: 5' phosphate from labeling
binding result [4]: binds | binding result (RecJf (MBP-RecJ fusion)): binds | binding result (RecJ (native wild-type) [5]): binds | binding result (SSB): binds

B5: A 7 nt 5' tail (dsDNA)
DNA 1: GCCCAGGTGGCAGGCCCTAGGGTGGAGGGGAGGCCGCCGGCATGGGGACGCGATGGGCGGAGGCG
DNA 2: CGCCTCCGCCCATCGCGTCCCCATGCCGGCGGCCTCCCCTCCACCCTAGGGCCTGCCA
modifications: 5' phosphate on A from labeling
binding result (RecJ (native wild-type) [2]): binds

B6: A 5 nt 5' tail (dsDNA)
DNA 1: GCCCAGGTGGCAGGCCCTAGGGTGGAGGGGAGGCCGCCGGCATGGGGACGCGATGGGCGGAGGCG
DNA 2: CGCCTCCGCCCATCGCGTCCCCATGCCGGCGGCCTCCCCTCCACCCTAGGGCCTGCCACC
modifications: 5' phosphate on A from labeling
binding result (RecJ (native wild-type) [2]): no binding

B7: A 9 nt 5' tail (dsDNA)
DNA 1: GCCCAGGTGGCAGGCCCTAGGGTGGAGGGGAGGCCGCCGGCATGGGGACGCGATGGGCGGAGGCG
DNA 2: CGCCTCCGCCCATCGCGTCCCCATGCCGGCGGCCTCCCCTCCACCCTAGGGCCTGC
modifications: 5' phosphate on A from labeling
binding result (RecJ (native wild-type) [2]): binds

B8: A/B 20 nt 5' tail (dsDNA)
DNA 1: GCCCAGGTGGCAGGCCCTAGGGTGGAGGGGAGGCCGCCGGCATGGGGACGCGATGGGCGGAGGCG
DNA 2: CGCCTCCGCCCATCGCGTCCCCATGCCGGCGGCCTCCCCTCCACC
modifications: 5' phosphate on A from labeling
Kd (RecJ (native wild-type) [1]): 33 nM

B9: A/E 65 bp duplex (dsDNA)
DNA 1: GCCCAGGTGGCAGGCCCTAGGGTGGAGGGGAGGCCGCCGGCATGGGGACGCGATGGGCGGAGGCG
DNA 2: CGCCTCCGCCCATCGCGTCCCCATGCCGGCGGCCTCCCCTCCACCCTAGGGCCTGCCACCTGGGC
modifications: 5' phosphate on A from labeling
binding result (RecJ (native wild-type) [3]): no binding
